Measurements taken from FireProtDB (doi:10.1074/jbc.m102741200).
Several values for one entry are separate records, joined by “and”; a condition that tells them apart may be missing. Identical values can stand only once.

B1: Alpha-amylase, P29957 (parent)
chain: MKLNKIITTAGLSLGLLLPSIATATPTTFVHLFEWNWQDVAQECEQYLGPKGYAAVQVSPPNEHITGSQWWTRYQPVSYELQSRGGNRAQFIDMVNRCSAAGVDIYVDTLINHMAAGSGTGTAGNSFGNKSFPIYSPQDFHESCTINNSDYGNDRYRVQNCELVGLADLDTASNYVQNTIAAYINDLQAIGVKGFRFDASKHVAASDIQSLMAKVNGSPVVFQEVIDQGGEAVGASEYLSTGLVTEFKYSTELGNTFRNGSLAWLSNFGEGWGFMPSSSAVVFVDNHDNQRGHGGAGNVITFEDGRLYDLANVFMLAYPYGYPKVMSSYDFHGDTDAGGPNVPVHNNGNLECFASNWKCEHRWSYIAGGVDFRNNTADNWAVTNWWDNTNNQISFGRGSSGHMAINKEDSTLTATVQTDMASGQYCNVLKGELSADAKSCSGEVITVNSDGTINLNIGAWDAMAIHKNAKLNTSSASSTESDWQRTVIFINAQTQSGQDMFIRGGIDHAYANANLGRNCQTSNFECAMPIRHNNLKNVTTSPWKANDNYLDWYGIENGQSSEAEGSATDWTTNVWPAGWGAEKTVNTDGFGVTPLNIWGEHYWMLDVDMDCSKAVNGWFELKAFIKNGQGWETAIAQDNAPYTSTNHMAQCGKINKFEFNNSGVVIRSF

Variants of: B1
Settings: Pseudoalteromonas haloplanktis; pH 7.2; Thermal; DSC; MOPS 30 mM; NaCl 50 mM; transition: 3; reversible: yes(51 %); structure 1AQH; whole UniProt chain shown

Row | Variant | Tm [°C] | unfolding enthalpy (calorimetric) [kcal/mol] | unfolding enthalpy (van 't Hoff) [kcal/mol]
1 | Q188I V220F | 44.7 | 83 | 121

Same assay, conditions: Pseudoalteromonas haloplanktis; pH 7.2; Thermal; DSC; MOPS 30 mM; NaCl 50 mM; transition: 3; reversible: yes(85 %); structure 1AQH; whole UniProt chain shown

Row | Variant | Tm | unfolding enthalpy (calorimetric) | unfolding enthalpy (van 't Hoff)
2 | T256V | 42.7 °C and 45.7 °C | 102 kcal/mol and 104 kcal/mol | 114 kcal/mol and 202 kcal/mol

Same assay, conditions: Pseudoalteromonas haloplanktis; pH 7.2; Thermal; DSC; MOPS 30 mM; NaCl 50 mM; transition: 3; reversible: yes(30 %); structure 1AQH; whole UniProt chain shown

Row | Variant | unfolding enthalpy (calorimetric) | unfolding enthalpy (van 't Hoff)
3 | N312V | 88 kcal/mol and 59 kcal/mol | 133 kcal/mol and 114 kcal/mol

Same assay, conditions: Pseudoalteromonas haloplanktis; pH 7.2; Thermal; DSC; MOPS 30 mM; NaCl 50 mM; reversible: yes(97 %); structure 1AQH; whole UniProt chain shown

Row | Variant | Tm [°C] | unfolding enthalpy (calorimetric) [kcal/mol] | unfolding enthalpy (van 't Hoff) [kcal/mol]
4 | N174D | 44.8 | 271 | 240

Same assay, conditions: Pseudoalteromonas haloplanktis; pH 7.2; Thermal; DSC; MOPS 30 mM; NaCl 50 mM; reversible: yes(25 %); structure 1AQH; whole UniProt chain shown

Row | Variant | Tm [°C] | unfolding enthalpy (calorimetric) [kcal/mol] | unfolding enthalpy (van 't Hoff) [kcal/mol]
5 | N36R | 43.3 | 193 | 231

Same assay, conditions: Pseudoalteromonas haloplanktis; pH 7.2; Thermal; DSC; MOPS 30 mM; NaCl 50 mM; reversible: yes(76 %); structure 1AQH; whole UniProt chain shown

Row | Variant | Tm [°C] | unfolding enthalpy (calorimetric) [kcal/mol] | unfolding enthalpy (van 't Hoff) [kcal/mol]
6 | E303W | 41.4 | 186 | 234

Same assay, conditions: Pseudoalteromonas haloplanktis; pH 7.2; Thermal; DSC; MOPS 30 mM; NaCl 50 mM; reversible: yes(81 %); structure 1AQH; whole UniProt chain shown

Row | Variant | Tm [°C] | unfolding enthalpy (calorimetric) [kcal/mol] | unfolding enthalpy (van 't Hoff) [kcal/mol]
7 | L243R | 42.5 | 217 | 187

Same assay, conditions: Pseudoalteromonas haloplanktis; pH 7.2; Thermal; DSC; MOPS 30 mM; NaCl 50 mM; transition: 3; reversible: yes(95 %); structure 1AQH; whole UniProt chain shown

Row | Variant | unfolding enthalpy (calorimetric) | unfolding enthalpy (van 't Hoff)
8 | M403V | 127 kcal/mol and 84 kcal/mol | 96 kcal/mol and 137 kcal/mol

Same assay, conditions: Pseudoalteromonas haloplanktis; pH 7.2; Thermal; DSC; MOPS 30 mM; NaCl 50 mM; reversible: yes(60 %); structure 1AQH; whole UniProt chain shown

Row | Variant | Tm [°C] | unfolding enthalpy (calorimetric) [kcal/mol] | unfolding enthalpy (van 't Hoff) [kcal/mol]
9 | V220F | 45.4 | 234 | 296

Same assay, conditions: Pseudoalteromonas haloplanktis; pH 7.2; Thermal; DSC; MOPS 30 mM; NaCl 50 mM; reversible: yes(91 %); structure 1AQH; whole UniProt chain shown

Row | Variant | Tm [°C] | unfolding enthalpy (calorimetric) [kcal/mol] | unfolding enthalpy (van 't Hoff) [kcal/mol]
10 | N174D V220F | 46.4 | 272 | 271

Same assay, conditions: Pseudoalteromonas haloplanktis; pH 7.2; Thermal; DSC; MOPS 30 mM; NaCl 50 mM; reversible: yes(96 %); structure 1AQH; whole UniProt chain shown

Row | Variant | Tm [°C] | unfolding enthalpy (calorimetric) [kcal/mol] | unfolding enthalpy (van 't Hoff) [kcal/mol]
11 | R88E | 42.6 | 236 | 112

Same assay, conditions: Pseudoalteromonas haloplanktis; pH 7.2; Thermal; DSC; MOPS 30 mM; NaCl 50 mM; transition: 3; reversible: yes(64 %); structure 1AQH; whole UniProt chain shown

Row | Variant | Tm | unfolding enthalpy (calorimetric) | unfolding enthalpy (van 't Hoff)
12 | Q188I | 42.7 °C and 45.2 °C | 87 kcal/mol and 117 kcal/mol | 117 kcal/mol and 240 kcal/mol
